Experiments:
[1] = target: T1, human CD137 expressed on Jurkat cells (human, UniProt Q07011 24-255); test: flow cytometry on CD137 expressing Jurkat cells
T1 construct: Also used here for CD137 on T cells of human PBMC in the IL-2 assays; also called Jurkat CD137 cells (clone C6, 1); membranous CD137
Protocol: (§1) Binding potency affinity to human CD137 expressing cells was also determined for selected scFvs. 50,000 CD137 expressing Jurkat cells (or as reference cell line Jurkat NFAT) were distributed to round bottom non-tissue culture treated 96 well plates. Cells were washed twice with 100 μl PBS by centrifugation at 400×g for 5 min. […] After 1 h incubation at 4° C. on a nutating mixer, cells were washed 3 times with 100 μl staining buffer and centrifugation steps of 5 min at 400×g. […] Plates were incubated 1 h at 4° C. on a nutating mixer, then washed 3 times with 100 μl of staining buffer and resuspended in a final volume of 50 μl of staining buffer. Finally, APC signal of 20,000 events per well was analyzed by flow cytometry using a Novocyte flow cytometer system (ACEA Bioscience).

[2] = target: T2, human Fc-tagged CD40 (AcroBiosystems, cat. CDO-H5253) (human, UniProt P25942 21-193); test: SPR T200, Fc-tagged CD40 captured, scFv analyte
T2 construct: also called human CD40
Protocol: (§2) In addition to cross-reactivity to cynomolgus monkey CD137, selectivity of binding of the anti-human CD137 scFvs to human CD137 and not to other members of the TNFR superfamily, such as CD40 and OX40, is desired. Therefore, binding of selected scFvs to human CD40 and OX40 was tested. Binding of scFvs to human Fc-tagged CD40 (AcroBiosystems, cat. CDO-H5253) and human Fc-tagged OX40 (Acro-Biosystems, cat. OXO-H5255) was determined by SPR analysis on a T200 device (Biacore, GE Healthcare). In this experiment, Fc-tagged CD40 and OX40 were captured using the Human Antibody Capture kit from GE healthcare (cat. BR-1008-39). After each analyte injection cycle, the anti-human Fc-specific IgG was regenerated and new antigen was captured. The scFvs were injected as analyte using a high concentration of 180 nM of the analyte diluted in running buffer. Association and dissociation time were set to 300 s and 720 s, respectively. Obtained sensorgrams were fitted using the 1:1 binding model.

[3] = target: T3, human Fc-tagged OX40 (Acro-Biosystems, cat. OXO-H5255) (human, UniProt P43489 29-216, limits assumed); test: SPR T200, Fc-tagged OX40 captured, scFv analyte
T3 construct: also called human OX40
T3 sequence (looked up): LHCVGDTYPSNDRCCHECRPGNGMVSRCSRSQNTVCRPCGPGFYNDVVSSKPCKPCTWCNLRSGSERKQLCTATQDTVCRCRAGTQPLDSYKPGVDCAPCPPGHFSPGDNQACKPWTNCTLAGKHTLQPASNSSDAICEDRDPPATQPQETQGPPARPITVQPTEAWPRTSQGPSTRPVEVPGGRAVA
Protocol: as §2

[4] = target: T4, Fc tagged human CD137 (R&D Systems, cat. 838-4B-100) (human, UniProt Q07011 24-186); test: SPR T200, Fc-tagged antigen captured, scFv analyte
T4 construct: also called CD137 Fc chimera; human CD137-Fc chimeric protein
Protocol: (§3) Affinity of the humanized scFvs to human CD137 was determined by SPR analysis on a T200 device (Biacore, GE Healthcare). […] After each analyte injection cycle, the anti-human Fc-specific IgG was regenerated and new antigen was captured. The scFvs were injected as analyte using a dose response multi-cycle kinetic assay over the captured CD137 with concentrations of the analyte ranging from 0.19 to 45 nM (three-fold dilutions steps) diluted in running buffer. Association and dissociation time were set to 300 s and 720 s, respectively. Obtained sensorgrams were fitted using the 1:1 binding model.

[5] = target: T5, cynomolgus monkey Fc-tagged CD137 (R&D Systems, cat. 9324-4B-100) (cynomolgus monkey, UniProt A9YYE7 24-186); test: SPR T200, Fc-tagged antigen captured, scFv analyte
T5 construct: also called cynomolgus CD137-Fc chimeric protein
Protocol: as §3
Cross-reactivity to cynomolgus CD137 was measured with cynomolgus monkey Fc-tagged CD137 (R&D Systems, cat. 9324-4B-100) in a similar assay as used to measure binding to human CD137.

[6] = target: T6, mouse Fc-tagged mouse CD137 (R&D Systems, cat. 937-4B-050) (mouse, UniProt P20334 24-187); test: SPR T200, Fc-tagged antigen captured, scFv analyte
T6 construct: also called mouse CD137-Fc chimeric protein
T6 sequence (looked up): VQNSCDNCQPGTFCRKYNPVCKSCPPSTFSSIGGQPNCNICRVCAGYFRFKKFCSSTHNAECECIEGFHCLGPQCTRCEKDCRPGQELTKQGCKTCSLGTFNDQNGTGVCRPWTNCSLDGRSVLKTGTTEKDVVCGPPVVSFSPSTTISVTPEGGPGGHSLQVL

[7] = target: T1, human CD137 expressed on Jurkat cells; test: flow cytometry on CD137 expressing Jurkat cells, protein L-APC
Protocol: as §1

T5 sequence (A9YYE7 entry or part of it): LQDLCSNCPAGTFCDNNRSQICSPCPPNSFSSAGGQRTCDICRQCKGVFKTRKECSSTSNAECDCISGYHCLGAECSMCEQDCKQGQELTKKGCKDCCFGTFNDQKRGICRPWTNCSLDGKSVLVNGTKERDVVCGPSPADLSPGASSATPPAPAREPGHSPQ
T2 sequence (P25942 21-193 limits assumed): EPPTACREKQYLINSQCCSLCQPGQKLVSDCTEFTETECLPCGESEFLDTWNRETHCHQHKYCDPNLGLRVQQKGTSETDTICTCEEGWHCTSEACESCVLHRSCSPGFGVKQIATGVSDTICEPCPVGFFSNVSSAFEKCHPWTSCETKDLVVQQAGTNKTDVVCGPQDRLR

B1: PRO1352 (38-02-A04 sc13, CDR graft with interdomain disulfide, VH3, scFv) (scFv)
scFv: DIQMTQSPSSLSASVGDRVTITCQASQSINNVLAWYQQKPGKAPKLLIYRASTLASGVPSRFSGSGSGTDFTLTISSLQPEDFATYYCQSSYGNYGDFGCGTKVTVLGGGGGSGGGGSGGGGSGGGGSEVQLVESGGGLVQPGGSLRLSCAASGFSFSNSYWICWVRQAPGKCLEWIGCTFVGSSDSTYYANWAKGRFTISRDNSKNTVYLQMNSLRAEDTAVYYCARHPSDAVYGYANNLWGQGTLVTVSS
notes: VL-linker-VH; carries VH G51C and VL T141C (AHo numbering); also called the scFv based on 38-02-A04 clone
Maximum binding (relative to urelumab) [1]: 10% | rel. EC50 (EC50, urelumab/EC50, scFv) [1]: 0.057 ratio | binding result [2]: no binding (tested: 180 nM) | binding result [3]: no binding (tested: 180 nM) | Kd [4]: 1.47 nM | koff [4]: 0.00103 s⁻¹ | kon [4]: 701000 M⁻¹ s⁻¹ | Kd [5]: 1.47 nM | koff [5]: 0.00102 s⁻¹ | kon [5]: 695000 M⁻¹ s⁻¹ | binding result [6]: no binding | EC50 [7]: 1.1 µg/mL
